# Values of other authors in US20250341526A1, “NOVEL DYES” (Quantum-Si Incorporated, priority 2024, published 2025).
# “Also recorded” adds a separate entry of the source.
# B1: PS370: ClpS amino acid recognition protein, SEQ ID NO: 3 (protein)
# chain: MFNSLGTVLDPKKSKAKYPEARVIVLDDNFNTFQHVANCLLAIIPRMCEQRAWDLTIKVDKAGSAEVWRGNLEQAELYHEQLFSKGLTMAPIEKT
# B2: PS408: ClpS amino acid recognition protein, SEQ ID NO: 31 (protein)
# chain: MTDPPSKGREDVDLATRTKPKTQRPPLYKVLLLNDDFTPMEFVVHILERLFGMTHAQAIEIMLTVHRKGVAVVGVFSHEIAETKVAQVMELARRQQHPLQCTMEKE
# B3: PS411: ClpS amino acid recognition protein, SEQ ID NO: 34 (protein)
# chain: MTRPDAPEYDDDLAVEPAEPELARPPLYKVVLHNDDFTPMEFVVEVLQEFFNMDSEQAVQVMLAVHTQGKATCGIFTRDIAETKSYQVNEYARECEHPLMCDIEAAD
# B4: PS410: ClpS amino acid recognition protein, SEQ ID NO: 33 (protein)
# chain: MGDDDQSSREGEGDVAFQTADPELKRPSLYRVVLLNDDYTPMEFVVHILEQFFAMNREKATQVMLAVHTQGKGVCGVYTKDIAETKAALVNDYSRENQHPLLCEVEELDDESR
# B5: PS398: ClpS amino acid recognition protein, SEQ ID NO: 26 (protein)
# chain: MPLKAQNRSIVGRRDEWPPPTTQSSSETKSESKRVSDTGADTKRKTKTVPKVEKPRLYKVILVNDDYTPREFVLVVLKAVFRMSEDQGYKVMITAHQKGSCVVAVYTRDIAETKAKEAVDLAKEIGFPLMFRTEPEE
# B6: PS413: ClpS amino acid recognition protein, SEQ ID NO: 36 (protein)
# chain: MMKQCGSYFLIKAVQDFKPLSKHRSDTDVITETKIQVKQPKLYTVIMYNDNYTTMDFVVYVLVEIFQHSIDKAYQLMMQIHESGQAAVALLPYDLAEMKVDEVTALAEQESYPLLTTIEPA
# B7: PS406: ClpS amino acid recognition protein, SEQ ID NO: 29 (protein)
# chain: MPDATTTPRTKTLTRTARPPLHKVILVNDDFTPREFVVRLLKAEFRTTGDEAQRIMITAHMKGSCVVAVFTREIAESKATRATETARAEGFPLLFTTEPEE
# B8: PS404: ClpS amino acid recognition protein, SEQ ID NO: 27 (protein)
# chain: MPVSVTAPQTKTKTKPKVERPKLYKVILVNDDFTPREFVVRVLKAEFRMSEDQAAKVMMTAHQRGVCVVAVFTRDVAETKATRATDAGRAKGYPLLFTTEPEE
# B9: PS369: ClpS amino acid recognition protein, SEQ ID NO: 2 (protein)
# chain: MTSTLRARPARDTDLQHRPYPHYRIIVLDDDVNTFQHVVNCLVTFLPGMTRDQAWAMAQQVDGEGSAVVWTGPQEQAELYHVQLGNHGLTMAPLEPV
# B10: PS412: ClpS amino acid recognition protein, SEQ ID NO: 35 (protein)
# chain: MATKREGSTLLEPTAAKVKPPPLYKVLLLNDDYTPMEFVVLVLKKFFGIDQERATQIMLKVHTEGVGVCGVYPRDIAHTKVEQVVDFARQHQHPLQCTMEES
# B11: PS405: ClpS amino acid recognition protein, SEQ ID NO: 28 (protein)
# chain: MVSIGAATVACAEGRPIFSGYFDWLAAMPETVTVPRTRLRPKTERPKLHKVILVNDDYTPREFVVTVLKGEFHMSEDQAQRVMITAHRRGVCVVAVFTKDVAETKATRASDAGRAKGYPLQFTTEPEE
# B12: PS409: ClpS amino acid recognition protein, SEQ ID NO: 32 (protein)
# chain: MPARLTDIEGEPNTDPVEDVLLADPELKKPQMYAVVMYNDDYTPMEFVVDVLQNHFKHTLDSAISIMLAIHQQGKGIAGIYPKDIAETKAQTVNRKARQAGYPLLSQIEPQG
# B13: PS414: ClpS amino acid recognition protein, SEQ ID NO: 37 (protein)
# chain: MQAAGNEPPDPQNPGDVGNGGDGGNQDGSNTGVVVKTRTRTRKPAMYKVLMLNDDYTPMEFVVHVLERFFQKNREEATRIMLHVHRRGVGVCGVYTYEVAETKVTQVMDLARQNQHPLQCTIEKE
# B14: PS396: ClpS amino acid recognition protein, SEQ ID NO: 24 (protein)
# chain: MSDNDVALKPKIKSKPKLERPKLYKVILVNDDFTPREFVIAVLKMVFRMSEETGYRVMLTAHRLGTSVVVVCARDIAETKAKEAVDFGKEAGFPLMFTTEPEE
# B15: PS415: ClpS amino acid recognition protein, SEQ ID NO: 38 (protein)
# chain: MALPETRTKIKPDVNIKEPPNYRVIYLNDDKTSMEFVIGSLMQHFSYPQQQAVEKTEEVHEHGSSTVAVLPYEMAEQKGIEVTLDARAEGFPLQVKIEPAER
# B16: PS416: ClpS amino acid recognition protein, SEQ ID NO: 39 (protein)
# chain: MTSQTDTLVKPNIQPPSLFKVIYINDSVTTMEFVVESLMSVFNHSADEATRLTQLVHEEGAAVVAILPYELAEQKGMEVTLLARNNGFPLAIRLEPAV
# B17: PS407: ClpS amino acid recognition protein, SEQ ID NO: 30 (protein)
# chain: MPSNKRQMCLSDIKNSFNESGIVDWHISPRLANEPSEEGDSDLAVQTVPPELKRPPLYAVVLLNDDYTPMEFVIEILQQYFAMNLDQATQVMLTVHYEGKGVAGVYPRDIAETKANQVNNYARSQGHPLLCQIEPKD
# B18: PS397: ClpS amino acid recognition protein, SEQ ID NO: 25 (protein)
# chain: MSDNEVAPKRKTRVKPKLERPRLYKVILVNDDYTPRDFVVMVLKAIFRMSEEAGYRVMMTAHKLGTSVVVVCARDIAETKAKEATDLGKEAGFPLMFTTEPEE
# System: amino acid at a terminal position of a polypeptide
# Conditions: Table 1, ClpS proteins; amino acid at terminal position; inferred from literature and/or demonstrated by the inventors; cited from earlier work
row,Molecule,Binding Pref.
1,B1,"F, L"
2,B2,"F, Y, W, L"
3,B3,"F, Y, W, L"
4,B4,"F, W, L"
5,B5,"F, W"
6,B6,"F, Y, W, L"
7,B7,"F, Y, W"
8,B8,"F, Y, W"
9,B9,"F, Y, W, L"
10,B10,"F, Y, W, L"
11,B11,"F, Y, W"
12,B12,"F, Y, W, L"
13,B13,"F, Y, W, L"
14,B14,"F, W"
15,B15,"F, Y, W"
16,B16,"F, Y, W, L"
17,B17,"F, Y, W, L"
18,B18,"F, Y, W"

# Same assay, conditions: Table 2; amino acid at terminal position (phosphotyrosine also internal); inferred from literature and/or demonstrated by the inventors; cited from earlier work
row,Molecule,Binding Pref.
1,"H. sapiens p62 fragment 126-180: amino acid recognition protein, SEQ ID NO: 122","K, R, H,; also recorded: W, F, Y"
2,"Rattus norvegicus p62 protein: amino acid recognition protein, SEQ ID NO: 124","K, R, H,; also recorded: W, F, Y"
3,"H. sapiens p62 fragment 1-180: amino acid recognition protein, SEQ ID NO: 121","K, R, H,; also recorded: W, F, Y"
